From PMC7438317

Target: GST-(PreScission site)-CYK-4 aa 146–190, phosphorylated by PLK-1 (C. elegans)
Assay: pull-down

fold increase in binding against the unphosphorylated WT CYK-4 fragment: 4 fold
Substance: ECT-2 aa 1–320 (ECT-2 BRCT module) (domain or fragment)
